Assay [1] has as its target 2-CysPrx C176S variant, non-tagged (Arabidopsis thaliana). The assay is described as follows: SEC.
For assay [2] the target is unchanged. The assay is described as follows: ITC.
Assay [3] addresses 2-CysPrx C54S variant, non-tagged (Arabidopsis thaliana). The assay is described as follows: SEC.
Assay [4] concerns the target 2-CysPrx F84R variant, non-tagged (Arabidopsis thaliana). The assay is described as follows: SEC.
Assay [5] shares this target. The assay is described as follows: SEC. The source holds these as a separate data set.
Assay [6] has as its target 2-CysPrx C-terminally truncated variant ΔC (–20 aa), non-tagged (Arabidopsis thaliana). The assay is described as follows: SEC.
For assay [7], the target named is 2-Cysteine peroxiredoxin A (At2-CysPrx) wild type, non-tagged (Arabidopsis thaliana). The assay is described as follows: SEC.
For assay [8] the target is unchanged. The assay is described as follows: SEC. This is another data set of the same source.
Assay [9] shares this target. The assay is described as follows: ITC.

Read-outs that look alike come from different tables or passages of the source.

In assay [1], “2-CysPrx C176S variant, non-tagged (enzyme)” had a stoichiometry N of 10. In addition, in assay [2], the CTC (critical transition concentration, oligomer to dimers) amounted to 0.63 µM and the dH (dissociation enthalpy ΔHm) was determined as 1610 kcal/mol.

Take “2-CysPrx C54S variant, non-tagged (enzyme)”: in [3], the stoichiometry N was determined as 10.

With “2-CysPrx F84R variant, non-tagged (enzyme)”, the stoichiometry N in assay [4] and in assay [5] was 2 throughout.

As to “2-CysPrx C-terminally truncated variant ΔC (–20 aa), non-tagged (enzyme)”, the stoichiometry N in [6] was 2.

In [7], “2-Cysteine peroxiredoxin A (At2-CysPrx) wild type, non-tagged (enzyme)” gave a stoichiometry N of 2. Further, in assay [8], the stoichiometry N was 10. In assay [9], this substance yielded a CTC (critical transition concentration, oligomer to dimers) of 3.73 µM and a dH (dissociation enthalpy ΔHm) of 72 kcal/mol.

The values are drawn from article PMC3733160.
